Laboratory results: patent publication US20050074814A1, “Relaxin3-GPCR135 complexes and their production and use” (priority 2003, published 2005)
Blank lines part the entries; values can stand above or below the molecule they belong to.

Tests used:
rat GPCR135 = experiment: Radioligand binding assay on COS-7 cells transfected with GPCR135; conditions: rat GPCR135 in COS-7 cells; presence or absence of 1 μM unlabeled competitor
Protocol: (§1) COS-7 cells in 6-well tissue culture plates were transfected by GPCR135 expressing plasmid using LipofectAmine. Two days after transfection, cells were washed with binding buffer: DMEM plus 50 mM Hepes, pH 7.2 and 1% BSA. ^125I-label human relaxin3 was added to each well in 1 ml of binding buffer at presence or absence 1 μM of unlabeled relaxin as competitor. The binding assays were carried out at room temperature for one hour and the unbound ligand was washed away by ice-cold PBS. The bound 125I-relaxin3 was counted in a gamma counter.

mouse GPCR135 = biological target: T1, mouse GPCR135 (Mus musculus, UniProt Q8BGE9); experiment: as above; conditions: mouse GPCR135 in COS-7 cells; presence or absence of 1 μM unlabeled competitor
T1 construct: Mouse GPCR135 coding region was PCR amplified from mouse genomic DNA; expressed in transfected cells; host or cells: COS-7 (transient)
T1 sequence (Q8BGE9 1-472): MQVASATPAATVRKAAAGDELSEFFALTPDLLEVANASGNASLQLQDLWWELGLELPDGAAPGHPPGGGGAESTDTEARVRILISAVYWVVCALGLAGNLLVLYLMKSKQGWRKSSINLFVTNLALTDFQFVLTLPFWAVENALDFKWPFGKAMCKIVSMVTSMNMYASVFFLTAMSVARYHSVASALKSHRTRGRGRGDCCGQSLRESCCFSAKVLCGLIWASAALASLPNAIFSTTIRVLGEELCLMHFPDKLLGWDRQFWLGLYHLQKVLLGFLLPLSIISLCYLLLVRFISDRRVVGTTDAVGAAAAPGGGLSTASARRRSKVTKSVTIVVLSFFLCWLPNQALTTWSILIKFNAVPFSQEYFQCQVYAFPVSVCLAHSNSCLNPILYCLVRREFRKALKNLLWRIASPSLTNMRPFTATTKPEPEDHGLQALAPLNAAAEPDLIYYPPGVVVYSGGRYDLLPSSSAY
Protocol: as §1

GPCR135 [1] = biological target: T2, GPCR135 (Homo sapiens, UniProt Q9NSD7); experiment: as above; parameters: primers complementary to the putative translation start and stop sites of the GPCR135 open reading frame; expressed in transfected cells; conditions: human GPCR135 in COS-7 cells; presence or absence of 1 μM unlabeled competitor
T2 sequence (Q9NSD7 1-469): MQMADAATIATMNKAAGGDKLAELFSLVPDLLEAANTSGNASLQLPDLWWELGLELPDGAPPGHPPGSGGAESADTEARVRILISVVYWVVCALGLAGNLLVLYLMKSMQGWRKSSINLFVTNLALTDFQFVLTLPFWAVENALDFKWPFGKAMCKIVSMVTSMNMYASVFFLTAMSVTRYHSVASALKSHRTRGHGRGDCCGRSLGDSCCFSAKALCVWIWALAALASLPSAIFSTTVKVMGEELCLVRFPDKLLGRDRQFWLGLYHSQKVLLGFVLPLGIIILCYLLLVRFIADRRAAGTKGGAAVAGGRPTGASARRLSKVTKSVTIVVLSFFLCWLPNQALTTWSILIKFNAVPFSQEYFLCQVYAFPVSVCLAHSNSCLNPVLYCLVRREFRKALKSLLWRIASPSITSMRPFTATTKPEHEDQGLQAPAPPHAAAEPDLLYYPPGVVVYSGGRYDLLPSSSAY
Protocol: as §1

human GPCR135 = experiment: Intracellular cAMP accumulation assay in CHO-K1 cells stably expressing human GPCR135; type: cell-based; conditions: in the presence of GPCR135
Protocol: (§2) CHO-K1 cells stably expressing human GPCR135 were established by transfection of GPCR135 expressing plasmid into CHO-K1 (ATCC# CCL-61) cells and culturing the transfected cells under selection of G418 (400 mg/L). The receptor expressing cells were seeded in 96-well plates at a cell density of 30,000 cells/well. Twenty-four hours later, cell culture medium was replaced with DMEM-F12 plus 2 mM IBMX (sigma). A different test compound for cAMP stimulation was added to each well. The reactions were incubated at room temperature for 20 min. Twenty micro-liters of 0.5 N HCl was added to each well to stop the reaction and extract the accumulated cAMP. The cAMP concentration was measured using a cAMP ELISA kit (NEN).

CHO-K1 cells = experiment: Intracellular cAMP accumulation assay in un-transfected CHO-K1 control cells; type: cell-based
Protocol: CHO-K1 cells stably expressing human GPCR135 (GPCR135) and un-transfected CHO-K1 cells (Control) were used for cAMP accumulation assays. Cells were treated with different stimulants as indicated. cAMP accumulated in the cells was extracted by HCl and the concentration of cAMP was measured by a ELISA kit (NEN) using ^125I-labeled cAMP and Flash plates.
as §2

LGR7 = biological target: T3, LGR7 (Homo sapiens, UniProt Q9HBX9); conditions: cited from earlier work
T3 sequence (Q9HBX9 1-757): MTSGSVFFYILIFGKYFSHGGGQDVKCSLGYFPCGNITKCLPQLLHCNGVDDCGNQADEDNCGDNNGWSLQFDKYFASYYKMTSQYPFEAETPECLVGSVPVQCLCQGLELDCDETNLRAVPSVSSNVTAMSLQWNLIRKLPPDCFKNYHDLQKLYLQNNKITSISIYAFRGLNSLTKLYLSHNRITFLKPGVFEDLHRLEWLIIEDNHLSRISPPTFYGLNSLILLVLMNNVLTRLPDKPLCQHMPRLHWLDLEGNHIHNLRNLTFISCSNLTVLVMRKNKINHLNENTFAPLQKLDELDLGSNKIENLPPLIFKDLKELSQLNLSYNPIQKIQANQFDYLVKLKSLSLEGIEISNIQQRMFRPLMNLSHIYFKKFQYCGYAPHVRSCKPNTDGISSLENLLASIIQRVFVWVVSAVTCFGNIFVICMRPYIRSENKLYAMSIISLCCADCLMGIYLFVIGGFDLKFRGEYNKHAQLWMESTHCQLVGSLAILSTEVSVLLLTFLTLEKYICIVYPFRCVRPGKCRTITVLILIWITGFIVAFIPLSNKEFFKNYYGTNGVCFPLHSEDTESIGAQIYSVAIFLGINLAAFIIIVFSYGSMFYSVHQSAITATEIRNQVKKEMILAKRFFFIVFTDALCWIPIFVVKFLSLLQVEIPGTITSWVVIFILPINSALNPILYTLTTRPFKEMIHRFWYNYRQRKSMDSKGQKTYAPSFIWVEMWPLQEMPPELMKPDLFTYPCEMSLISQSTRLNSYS

GPCR135 [2] = biological target: T2, GPCR135; experiment: Ca2+ mobilization assay (FLIPR) in HEK293 cells co-expressing GPCR135 and Gqi5; type: cell-based; parameters: primers complementary to the putative translation start and stop sites of the GPCR135 open reading frame; expressed in transfected cells
Protocol: Using LipofectAmine, human embryonic kidney (HEK) 293 cells were co-transfected with a plasmid expressing GPCR135 receptor and a plasmid expressing Gqi5, a mutant G-protein that translates the activation of GPCR135 into an increased intracellular Ca 2+, or increased Ca^2+ mobilization (Conklin et al., 1993, Nature 363: 274-276). Two days after transfection, cells were detached with PBS plus 10 mM EDTA, pH 8.0. The detached cells were washed with DMEM-F12 medium (without phenol red, Invitrogen) and seeded in black poly-D lysine coated 96-well plates at a cell density of 50,000 cell/well. Calcium dye, Fluo-3 (AM) (TEFLABS, Austin, Tex.) was loaded into the cells and ligand stimulated calcium mobilization was monitored using FLIPR (Molecular Device).
HEK293 cells, untransfected (293 Control) or transfected by Gqi5 (293/Gqi5) alone or human GPCR135 (GPCR135) alone, or co-transfected by human GPCR135 and Gqi5 (GPCR135/Gqi5), were used for Ca^2+ mobilization assays under stimulation of relaxin3 as the ligand. Ligand-stimulated intracellular mobilization was monitored using FLIPR.

GPCR135 [3] = biological target: T2, GPCR135; experiment: GTPγS binding assay with GPCR135 expressing cell membranes; type: biochemical; parameters: primers complementary to the putative translation start and stop sites of the GPCR135 open reading frame; expressed in transfected cells; host or cells: CHO-K1 (transient, pCIneo vector), membranes; conditions: isolated membranes of CHO-K1 cells transfected with GPCR135; 35S-GTPγS
Protocol: Frozen rat brains (5 g) were homogenized at −30° C. in 40 ml ethanol/HCl (ethanol to 0.8M HCl ratio at 3:1). The homogenate was extracted at 4° C. for 2 hr and then centrifuged at 4° C. at 20,000 g for 30 min. The supernatant was loaded onto a 2 ml SP-Sephadex C-25 column (Amersham), washed with 1 M acetic acid and eluted with 2 M pyridine and 1 M acetic acid. The eluted fraction was loaded onto a 6 ml C-18 BondElut column, washed with 0.1% TFA and eluted with 60% acetonitrile and 0.1% TFA. The eluted peptides were lyophilized, reconstituted in water, and tested for GPCR135 ligand activity using GTPγS binding assay as described in Example 5.
GPCR135 expression vector was transfected into CHO-K1 cells using Lipofectamine (Invitrogen). Two days after transfection, the transfected cells were harvested and homogenized in GTPγS binding buffer: 50 mM Tris-HCl, pH 7.4, 10 mM MgCl2, 1 mM EDTA pH 8.0, and 100 mM NaCl. Protease inhibitors were added to the buffer at concentrations of 1 mM PMSF, 10 μg/ml of pepstain A, 10 μg/ml of leupeptin. Cell membranes were isolated by centrifugation at 20,000 g for 30 min. […] Microscint-40 (Packard) was added to each well and the plate was counted on a top counter (TopCount NTX, Packard).

GPCR135 [4] = biological target: T2, GPCR135; experiment: Intracellular cAMP accumulation assay in CHO-K1 cells stably expressing human GPCR135; type: cell-based; parameters: primers complementary to the putative translation start and stop sites of the GPCR135 open reading frame; expressed in transfected cells; host or cells: CHO-K1 (transient, pCIneo vector), membranes; conditions: CHO-K1 cells expressing human GPCR135
Protocol: as §2

GPCR135 [5] = biological target: T2, GPCR135; parameters: host or cells: Cos-1 (transient); conditions: transient expression of GPCR135 in Cos-1 cells; cited from earlier work

Chain of rat GPCR135 (as listed by the source): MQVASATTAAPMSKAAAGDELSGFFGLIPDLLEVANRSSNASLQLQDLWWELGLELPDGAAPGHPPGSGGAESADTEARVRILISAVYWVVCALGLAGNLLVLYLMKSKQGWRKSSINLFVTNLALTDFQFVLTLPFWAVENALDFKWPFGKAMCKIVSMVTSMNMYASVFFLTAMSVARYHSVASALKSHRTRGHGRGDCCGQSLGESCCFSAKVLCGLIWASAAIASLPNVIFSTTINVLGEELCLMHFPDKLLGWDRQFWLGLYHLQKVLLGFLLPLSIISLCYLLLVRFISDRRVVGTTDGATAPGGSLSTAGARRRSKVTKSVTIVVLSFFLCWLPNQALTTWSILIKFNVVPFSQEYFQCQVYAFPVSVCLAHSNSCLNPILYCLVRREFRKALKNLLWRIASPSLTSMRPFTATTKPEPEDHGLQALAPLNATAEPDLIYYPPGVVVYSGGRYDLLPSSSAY

- specific binding to GPCR135 (mouse GPCR135): specifically binds
- specific binding to GPCR135 (GPCR135 [1]): specifically binds
Molecule: ^125I-relaxin 3: 125I-labeled human relaxin3 used as radioligand
- specific binding to GPCR135 (rat GPCR135): specifically binds

Molecule: C=C[C@@]1(C)CC(=O)[C@]2(O)[C@@]3(C)[C@@H](O)CCC(C)(C)[C@@H]3[C@H](O)[C@H](OC(C)=O)[C@@]2(C)O1 [forskalin]
- intracellular concentration of cAMP (human GPCR135): increases the intracellular concentration of cAMP
- intracellular concentration of cAMP (CHO-K1 cells; in the absence of GPCR135): increases the intracellular concentration of cAMP

Molecule: relaxin3: recombinant human relaxin3, mature two-chain (A and B) peptide linked by disulfide bridges, purified from transfected COS-7 medium
- activation of LGR7 (LGR7): activates LGR7
- ligand-stimulated intracellular Ca2+ mobilization (GPCR135 [2]): stimulated Ca^2+ mobilization
- stimulation of GTPγS binding in GPCR135 expressing cell membrane (GPCR135 [3]): potently stimulated GTPγS binding
- forskalin-stimulated cAMP accumulation (CHO-K1 cells; control cells where GPCR135 is absent): not in control cells
- forskalin-stimulated cAMP accumulation (GPCR135 [4]): inhibits forskalin-stimulated cAMP accumulation

Molecule: angiotensin II (DRVYIHPF; Angiotensin-2; UniProt P01019 25-32, looked up)
- binding sites on GPCR135 expressing cells (GPCR135 [5]): did not produce any binding sites
